PMC3978166, “A new unconventional HLA-A2-restricted epitope from HBV core protein elicits antiviral cytotoxic T lymphocytes” (Protein & Cell, 2014)

Key:
[1] = target: HLA-A*0201 molecules on T2 cells (human (endogenous in T2)); assay: flow cytometry on cells
HLA-A*0201 molecules = HLA-A*0201 molecules (Homo sapiens, UniProt P04439, D140Y/D185E/D98H/E176V/E277Q/G131W/G231S/I119V/I121R/I166T/I218V/L300P/L318F/N151K/N90K/P208A/P217A/Q86G/Q94H/R138H/R169H/T345S); assay: T2 binding assay (MHC stabilization assay with T2 cells, flow cytometry); assay type: cell-based; conditions: FI = (mean FITC fluorescence with peptide − without peptide)/(without peptide), high affinity FI ≥1, representative of three independent experiments
Description: (A) The overlapping method of 8 aa overlap was used to synthesize a total of 191 nonapeptides covering HBc aa 1–150. […] (C and D) Measurement of the binding affinity of HBc141–149N- or C-terminally truncated (C) or extended (D) peptides to HLA-A*0201. HBc82-90 served as a negative control (NC). (E) In vitro refolding of HBC141–149 peptide with HLA-A*0201 heavy chain and β2m. Gel filtration chromatography was used to analyze the refolded complexes on a Superdex200 16/60 column. […] The HLA complex (peak 2) was analyzed by SDS-PAGE electrophoresis and coomassie blue staining
T2 cells were used to perform MHC stabilization assays as previously described (Zhou et al., [2006]). The binding activity of each peptide was calculated as the fluorescent index (FI), and the FI was determined by: (mean FITC fluorescence with the given peptide − mean FITC fluorescence without peptide) (mean FITC fluorescence without peptide).

peptide-specific CTLs [2] = assay: Ex vivo IFN-γ ELISPOT on PBMCs from HLA-A2+ AHB patients; assay type: cell-based, human; conditions: PBMCs 2 × 10^5/well from HLA-A2+ AHB patients (n = 19), 50 μg/mL peptide; mean ± SD (Fig. 3D)
Description: (D) AHB patients (n = 29) were divided into HLA-A2-positive (n = 19) and HLA-A2-negative (n = 10) groups. PBMCs (2 × 10^5/well) from these patients were stimulated with the indicated peptides for detection of peptide-specific CTLs by ELISPOT assay. […] PBMCs from HLA-A2- patients were used for specificity evaluation of CTLs. Paired samples t-tests were used for ELISPOT assay in AHB patients. *P < 0.05 and **P < 0.01 by t-test. Data are representative of two independent experiments
A total of 29 AHB patients were enrolled for blood collection, which were divided into two groups: HLA-A2-positive (n = 19) and HLA-A2-negative (n = 10). All patients were negative for HCV, HDV, and HIV-1 infection. 10 mL of blood samples were collected from each patient.
To detect epitope-specific T cells, enzyme-linked immunosorbent spot (ELISPOT) assay was performed according to the manufacturer’s instruction. Briefly, ninety-six well PVDF plates (BD-Pharmigen, San Diego, CA) were precoated overnight at 4°C with the coating Ab and blocked for 1 h at 37°C. Patient PBMCs (2 × 10^5) or murine splenocytes (10^6) were added to each well together with 50 μg/mL of peptide and incubated at 37°C for 24–48 h with phytohemagglutinin (PHA)-stimulated T cells as positive controls. Each test was performed at least in triplicate. The spots were counted and analyzed using an ELISPOT Reader (Cellular Technology Ltd, USA).

peptide-specific CTLs [3] = assay: IFN-γ ELISPOT on splenocytes of immunized HLA-A2.1/Kb transgenic mice; assay type: in vivo; conditions: female HLA-A2.1/Kb mice, HBc DNA prime/peptide boost with gp96 adjuvant, 1 week after last immunization; 5 × 10^5 splenocytes; mean ± SD of five mice (Fig. 3A)
Procedure: Figure 3 Detection of HBc141–149 peptide-specific CD8 ^+ T cell response in HLA-A2.1/Kb mice and AHB patients. Female HLA-A2.1/Kb transgenic mice were immunized with an HBV DNA prime/peptide boost regimen at weeks 1, 3, and 4. […] (B and C) 293T cells labeled with CFSE were transfected with pHBV1.3 as target cells (B), and T2 cells labeled with CFSE were loaded with 20 μg/mL peptide at 37°C for 1 h as target cells (C). […] After 4 h, the mixed samples were stained with PI, and the killing of target cells were analyzed by FACS. The data shown are the mean ± SD of five mice. (D) AHB patients (n = 29) were divided into HLA-A2-positive (n = 19) and HLA-A2-negative (n = 10) groups. PBMCs (2 × 10^5/well) from these patients were stimulated with the indicated peptides for detection of peptide-specific CTLs by ELISPOT assay. HBc82–90 peptide served as negative control for background evaluation in ELISPOT assay. PBMCs from HLA-A2- patients were used for specificity evaluation of CTLs. Paired samples t-tests were used for ELISPOT assay in AHB patients. *P < 0.05 and **P < 0.01 by t-test. Data are representative of two independent experiments […]
To detect epitope-specific T cells, enzyme-linked immunosorbent spot (ELISPOT) assay was performed according to the manufacturer’s instruction. […] The spots were counted and analyzed using an ELISPOT Reader (Cellular Technology Ltd, USA).

HBc60–68 (V60) peptide gave an FI (fluorescent index) [1] of 2.64.

HBc140–149 peptide gave an FI (fluorescent index) [1] of 0.033.

Work on HBc141–148 peptide yielded an FI (fluorescent index) [1] of 0.124.

HBc141–149 peptide gave an FI (fluorescent index) [1] of 2.41.

HBc141–150 peptide showed an FI (fluorescent index) [1] of 0.005.

HBc142–149 peptide was tested, and the FI (fluorescent index) [1] was 0.151.

With “LSTLPETTVV [HBc140–149, extended decapeptide of HBc141–149, […]]” the “FI (fluorescent index), binding to HLA-A*0201” value (from here on “FI (fluorescent index), binding”) (HLA-A*0201 molecules) was 0.033.

With RELVVSYVN [HBc82–90] the “peptide-specific CTL response, ex vivo IFN-γ ELISPOT” value (peptide-specific CTLs [2]) was 20.94 ± 17.57 and the “peptide-specific CTL response, IFN-γ ELISPOT (SFC)” value (peptide-specific CTLs [3]) was “No peptide-specific CD8^+ T cell response was detected”.

STLPETTV [HBc141–148] was tested, and the “FI (fluorescent index), binding” value (HLA-A*0201 molecules) was 0.124.

For TLPETTVV [HBc142–149], the “FI (fluorescent index), binding” value (HLA-A*0201 molecules) was 0.151.
